According to paper PMC7076015, “An epilepsy-associated mutation in the nuclear import receptor KPNA7 reduces nuclear localization signal binding” (Scientific Reports, 2020):

What was measured:
Settings in all cases: both partners purified
[1] = biological target: T1, MBP-KPNA7(P339A) (human, UniProt A9QM74 1-516, P339A); assay: pull-down; MBP fusion proteins on amylose resin (1 μg/μl), GST-GFP-NLS constructs in solution (250 nM or indicated concentrations) with Imp-β (250 nM); 2 hrs at 4 °C, 20 mM Tris pH 8, 200 mM NaCl, 1 mM EDTA, 1 mM DTT, 0.05% Triton X-100; western blot
T1 construct: Substitution found in epilepsy patients (occurs in nature); also called KPNA7 mutant P339A; P339A KPNA7; source: E. coli BL21, purified (amylose resin, eluted with maltose, dialyzed)

[2] = biological target: T2, MBP-KPNA7(E344Q) (human, UniProt A9QM74 1-516, E344Q); assay: as above
T2 construct: Substitution found in epilepsy patients (occurs in nature); also called KPNA7 mutant E344Q; E344Q KPNA7; source: E. coli BL21, purified (amylose resin, eluted with maltose, dialyzed)

[3] = biological target: T3, MBP-KPNA7 (wild type) (human, UniProt A9QM74 1-516); assay: pull-down; bead binding assay with a range of GST-GFP-hnRNP R-bNLS concentrations (10 nM to 2.7 μM) on KPNA7 proteins; binding curve, apparent KD
T3 construct: also called WT KPNA7; MBP-KPNA7 WT; source: E. coli BL21, purified (amylose resin, eluted with maltose, dialyzed)

[4] = biological target: T2, MBP-KPNA7(E344Q); assay: as above

T2 sequence (A9QM74 whole entry E344Q): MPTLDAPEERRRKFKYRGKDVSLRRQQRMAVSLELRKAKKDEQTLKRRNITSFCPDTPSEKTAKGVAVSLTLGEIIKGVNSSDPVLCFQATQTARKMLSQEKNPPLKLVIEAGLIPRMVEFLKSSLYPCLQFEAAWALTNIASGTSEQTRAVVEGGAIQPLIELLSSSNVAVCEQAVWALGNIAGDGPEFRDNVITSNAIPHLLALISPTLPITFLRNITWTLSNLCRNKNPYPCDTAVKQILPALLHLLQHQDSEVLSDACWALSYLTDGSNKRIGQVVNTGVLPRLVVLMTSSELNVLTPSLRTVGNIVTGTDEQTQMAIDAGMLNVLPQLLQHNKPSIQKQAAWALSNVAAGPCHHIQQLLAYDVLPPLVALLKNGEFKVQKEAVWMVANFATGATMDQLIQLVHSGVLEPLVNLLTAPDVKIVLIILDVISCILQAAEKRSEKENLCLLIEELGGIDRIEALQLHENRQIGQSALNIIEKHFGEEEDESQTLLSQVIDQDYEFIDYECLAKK
T1 sequence (A9QM74 whole entry P339A, the tested form may be a part): as the sequence (A9QM74 whole entry E344Q) above, with P339A, Q344E counted along it
T3 sequence (A9QM74 whole entry): as the sequence (A9QM74 whole entry E344Q) above, with Q344E counted along it

binding result [1]: binds
fold less binding than WT KPNA7 [2]: ~10 fold
Kd [3]: ~123 nM
Kd [4]: ~223 nM
B1: GST-GFP-hnRNP R bipartite NLS (domain or fragment, UniProt O43390 565-589, looked up)
chain: RGGNVGGKRKADGYNQPDSKRRQTN
notes: hnRNP R, bipartite NLS (bNLS, a.a. 565-589), cloned into pGEX-4T1-GFP; The limits are those that the text gives for the NLS; also called hnRNP R bNLS; hnRNP R-bNLS; source: E. coli BL21, purified (glutathione resin)
